The values that follow come from patent US20230257454A1 (STAIDSON BEIJING BIOPHARMACEUTICALS, published 2023).

Usually Kd stands for a measure of binding affinity in units of concentration. The low end stands for higher affinity, the high end for lower affinity. The term koff denotes a measure of how fast the partners let go of each other. High values mean a short-lived complex, low ones a long-lived complex. As usually defined, the kon is a measure of how fast the partners come together. Read a high kon as fast association.

Assay [1] has as its target T1, human C5a (source not stated) (human, UniProt P01031 678-751).
T1 sequence: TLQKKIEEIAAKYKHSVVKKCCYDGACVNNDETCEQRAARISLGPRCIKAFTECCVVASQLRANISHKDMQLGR
Nature of the assay: cell-based or functional assay.

Assay [2] concerns the target T2, native full-length human complement component C5 (human, UniProt P01031 19-673; P01031 678-1676).
T2 construct: mature; The native protein has two disulfide-linked chains (alpha and beta) made from one precursor; also called human native C5
Nature of the assay: SPR (Biacore T200), antibody on CM5 chip, antigen 0-10 nM. As for the experimental part:
The affinities for eC5a and c5 at various concentrations were measured. […] The concentrations of 0.625 and 0 nM were repeated once. Using the SPR technology, the association and dissociation rates were measured, and binding affinity was determined.

The target in assay [3] is T1, human C5a (source not stated). The assay can be described thus: cell-based or functional assay. This is another data set of the same source.

Changes are numbered by the printed parent chain. Read-outs that look alike come from different tables or passages of the source.

T2 sequence (P01031 19-673 limits assumed, one chain of several): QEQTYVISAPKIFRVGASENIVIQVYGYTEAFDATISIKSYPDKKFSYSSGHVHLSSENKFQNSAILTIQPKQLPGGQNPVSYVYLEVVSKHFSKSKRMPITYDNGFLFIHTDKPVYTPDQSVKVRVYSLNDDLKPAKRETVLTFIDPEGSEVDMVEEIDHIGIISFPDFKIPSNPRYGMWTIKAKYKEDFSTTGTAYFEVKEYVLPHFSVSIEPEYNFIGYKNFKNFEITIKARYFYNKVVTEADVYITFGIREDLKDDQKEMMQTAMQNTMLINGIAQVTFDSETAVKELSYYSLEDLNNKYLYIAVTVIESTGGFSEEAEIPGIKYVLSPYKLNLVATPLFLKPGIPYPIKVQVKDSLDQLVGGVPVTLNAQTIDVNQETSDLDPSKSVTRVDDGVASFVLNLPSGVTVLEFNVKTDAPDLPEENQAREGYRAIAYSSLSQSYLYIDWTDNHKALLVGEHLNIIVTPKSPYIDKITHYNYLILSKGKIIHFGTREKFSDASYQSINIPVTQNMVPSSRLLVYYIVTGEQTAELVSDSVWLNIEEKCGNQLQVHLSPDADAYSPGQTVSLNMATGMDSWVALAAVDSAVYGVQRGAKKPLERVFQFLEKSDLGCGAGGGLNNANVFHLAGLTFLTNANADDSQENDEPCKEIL

B1: Cab43 (reformatted as human IgG1) (antibody, V domains shown)
VH: EVQLVESGGGLVQPGGSLRLSCAASGFTFSNYYIQWVRQAPGKGPEWVGLIRNKAIGETTEFAASVKGRFTISRDDSKNSVYLQMNSLKTEDTAVYYCAGRLGPPGLTWGQGVLVTVSS
VL: DIVMTQSPLSLPVTPGEPASISCRSSQNLLATDGYTYLDWYLQKPGQSPQLLIYGGSKRASGVPDRFSGSGSGTDFTLKISRVEAEDVGVYYCLQHRALPPTFGQGTKLEIK
With B1, the “ROS IC50” value in assay [1] came out at 0.62 nM.

B2: INab308 (antibody, V domains shown)
VH: QVQLQQSGPQLVRPGTSVKISCKASGYSFTTFWMDWVKQRPGQGLEWIGRIDPSDSESRLDQRFKDRATLTVDKSSSTVYMQLSSPTSEDSAVYYCARGNDGYYGFAYWGQGTLVTVSS
VL: DIVLTQSPASLAVSLGQRATISCKASQSVDYDGDSYMKWYQQKPGQPPKLLIYAASNLQSGIPARFSGSGSGTDFTLNIHPVEEEDAATYYCQQSNEDPYTFGGGTKLEIK
Take B2: in assay [2], the Kd was 0.743 nM, the koff was found to be 0.000218 s⁻¹ and the kon was determined as 293000 M⁻¹ s⁻¹.

B3: Cab13 scFv (scFv, V domains shown)
VH: VVQLVESGGGLVQPGGSLKVSCAASGFTFSDYYMQWVRQAPGKGPEWVGLIRNKAIGGTTQYAASVKGRFTISRDDSKSIVYLQMSSLKTEDTAVYYCVSRAGPPGLSWGQGVLVTISS
VL: DIVMIQNPLSLPVTPGEPASISCRSSQSLLASDGYNYMDWYLQKPGQSPKVLIYGGSNRASGVPDRFSGSGSGTDFTLKITKVEAEDVGIYYCMQHKVLPPTFGQGTKLEIK
In the case of B3, in assay [3], the “ROS IC50” value was 1.08 nM.

B4: Cab15 scFv (scFv, V domains shown)
VH: B3 VH with G58E, Q61E, T90P, V99A, S100G, A102L, I117V
VL: B3 VL with I5T, S32T, N36T, M38L, K50Q, N58K, V98A
Take B4: in assay [3], the “ROS IC50” value came to 0.64 nM.

B5: Cab03 scFv (scFv, V domains shown)
VH: B3 VH with V1E, T28I, N53K, A55V, I56N, Q61E, T90I, S108T, I117V
VL: DIVLTQTPLSLAVSPGEPASISCRSSQSLLASDGYTYLDWYLQKPGQSPQILIYGGSNRASGVPDRFSGRGSGTDFTLKITKVEAEDVGVYYCLQHRALPPTFGQGTKLEIK
For B5, the “ROS IC50” value in assay [3] stood at 1.41 nM.

B6: Cab04 scFv (scFv, V domains shown)
VH: B3 VH with V1E, E6Q, L114V, I117V
VL: B1 VL with T5I, S7T, N28R, A31H, K58N, T74S, R82K, R97K, P101L, Q105G
Turning to B6, the “ROS IC50” value in assay [3] amounted to 1.87 nM.

B7: Cab35-IgG1 (antibody, V domains shown)
VH: B1 VH with V2M, N31D, I34M, I56V, E61Q, F62Y, A99V, G100S, L102A, T108S
VL: B1 VL with N28S, T32S, T36N, L38I, K58N, Y92F
With B7, the “ROS IC50” value in assay [1] amounted to 1.28 nM.

B8: Cab38 (reformatted as human IgG1) (antibody, V domains shown)
VH: B3 VH with V1E, V2M, K19R, V20L, I56V, G58H, S79N, I80S, S86N, I117V
VL: B1 VL with N28S, T32S, T36N, L38I, K58N, Y92F
As to B8, the “ROS IC50” value in assay [1] came out at 0.53 nM.
